Experimental data as given in paper PMC3677566 (Biochemistry, 2011).

Target: Ubc9 (human, UniProt P63279 1-158)
Experiment: pull-down

Ubc9, sequence (P63279 whole entry): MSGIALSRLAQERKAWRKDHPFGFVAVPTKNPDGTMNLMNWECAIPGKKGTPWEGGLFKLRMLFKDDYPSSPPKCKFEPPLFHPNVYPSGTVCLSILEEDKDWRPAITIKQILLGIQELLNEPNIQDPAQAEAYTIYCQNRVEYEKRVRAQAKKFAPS

| binding result | Binder |
| --- | --- |
| binds | IR1-M domain (internal repeat 1 and M) of RanBP2 (domain or fragment, UniProt P49792 2629-2710, looked up) DDDVLIVYELTPTAEQKALATKLKLPPTFFCYKNRPDYVSEEEEDDEDFETAVKKLNGKLYLDGSEKCRPLEENTADNEKEC |
| binds | IR1-M_ΔSIM domain of RanBP2 (domain or fragment, UniProt P49792 2637-2710, looked up) ELTPTAEQKALATKLKLPPTFFCYKNRPDYVSEEEEDDEDFETAVKKLNGKLYLDGSEKCRPLEENTADNEKEC |
